According to patent US20050054575A1 (US Dept. of Health and Human Services, published 2005):

B1: PSA-3 (L-155) also called PSA-3A (peptide)
peptide: VLSNDVCAQV
notes: Synthetic analog peptide; also called agonist peptide PSA-3A
B2: PSA-3 (Y-154) (peptide)
peptide: YISNDVCAQV
notes: Synthetic analog peptide
B3: PSA-3 (L-163) (peptide)
peptide: VISNDVCAQL
notes: Synthetic analog peptide
B4: PSA-3 (Y-154/L-155) (peptide)
peptide: YLSNDVCAQV
notes: Synthetic analog peptide; also called PSA-3 (L155/Y154)

What was measured:
HLA-A2 [1] = molecular target: T1, HLA-A2 (human); experiment: flow cytometry of HLA-A2 on T2A2 cells, peptide 0 to 50 µg/ml
T1 construct: whole, on cells; also called HLA-A2.1; MHC-class I A2
Description: (§1) Peptide Binding to HLA-A2. […] Briefly, 1×10⁶ cells in serum-free Iscove's modified Dulbecco's complete medium were incubated with peptides at a concentration of 50 μg/ml in 24 well culture plates at 37° C. in 5% CO₂. Flow cytometry for peptide binding was performed using T2 cells and single-color analysis. After cells were washed three times in DPBS, as described above, they were incubated for 1 h with HLA-A2 specific MAb (One Lambda, Inc.) using […] of a 1× working dilution per 10⁶ cells. UPC-10 (Cappel/Organon Teknika) was used as isotype control. The cells were washed three times and incubated with 1:100 dilution of FITC-labeled anti-mouse IgG (Becton Dickinson). Analysis was conducted with the FACScan, as described above. Cells were maintained on ice during all cell preparation and staining.

HLA-A2 [2] = molecular target: T1, HLA-A2; experiment: flow cytometry of HLA-A2 on T2A2 cells
Description: as §1

HLA-A2 [3] = molecular target: T1, HLA-A2; experiment: flow cytometry of HLA-A2 on peptide-loaded T2A2 cells
Description: as §1

Binder	binding result (HLA-A2 [2])	other results
B1	–	binding result (HLA-A2 [1]): binds
B2	binds	–
B3	–	binding result (HLA-A2 [3]): no binding (tested: 0 to 50 µg/ml)
B4	binds	–
